From the nanobody polyreactivity screen of Harvey et al. (2022)

Assay: yeast display, Sf9 membrane polyspecificity reagent, FACS + sequencing; frameworks hold sequencing errors
In short: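 After 36–48 hours of galactose induction, yeast (Saccharomyces cerevisiae BJ5465) displaying a synthetic nanobody library were stained at 4 °C for 1 hour with 10% biotinylated, detergent-solubilized Sf9 membrane reagent. Streptavidin microbeads enriched the stained cells before FACS sorting into low and high (top ~1%) gates on anti-HA and streptavidin fluorescence. Each clone's polyreactivity label reflects its gate of origin.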

QVQLVESGGGLVQAGGSLRLSCAASGGTFRANAMVWYRQAPGKERELVAAISFRGGTTYYADSVKGRFTISRDNAKTTVYLQMNSLKPEDTAVYYCAAGRRGSYYYWGQGTQVTVSS
polyreactivity (PSR sort gate): high polyreactivity

QVQLVESAGGLVQAGGSLRLSCAASGYTFPFYTMGWYRQAPGKERELVAAITDTGGGTYYADSVKGRFTISRDNAKNTVYLQMNSLNPEDTAVYYCAKPTSYRGYYSWGQGTQVTVSS
polyreactivity (PSR sort gate): high polyreactivity

QVQLVESGGGLDQAGGSLRLSCAASGIIFWYYAMGWYRQAPGKEMELVAAINWNGDSTHYADSVKGRFTISRDNAKNTVYLQMNILKPEDTAVYYCAARTYTLRGVYFSGYNYWGQATQVTVSS
polyreactivity (PSR sort gate): low polyreactivity

QVQLVESGGGLVQAGGSLRLSCAASGSTFRFYAMGWYRQAPGKERELVAVIRSTGSTYYADSVKGRFTISRDNAKNTVYLQMNSLKPEDTAVYYCAAQNAWWSNGRSYDYWGQGTQVTVSS
polyreactivity (PSR sort gate): low polyreactivity

QFQLVESGGGLVQAGGSLRLSCAASGSTFFVYDMGWYRQATGKEGELVAAISISDGGTYYADSVKGRFTISRDNAKNTVYLQMKSLKPEDTAVYYCAADYSERYFPGYDYWGQGTLVTVSS
polyreactivity (PSR sort gate): low polyreactivity

QVQLVESGGGLVQAGGSLRLSCAASGRTFHGYAMGWYRQAPGKERELVAAINASGGRTYYADSVKGRFTISRDNAKNTVYLQMNSLKPEDTAVYYCAVYSASFRYGLAYDYWGQGTQVTVSS
polyreactivity (PSR sort gate): high polyreactivity

HVQLLESGGGLVQAGGSLRLSCAASGITFQFYPKGWYRQAPGKERELVAAISYSGGSTYYADSVKGRFTISRDNAKNTVYLQMNSLKAADTAVYYCAAVSYSSRGNYWGQGTQVTVSS
polyreactivity (PSR sort gate): high polyreactivity

QVQLVESGGGLVQAGGSLRFSCAASGFTFVYNAMGWYRQAPGKERELVARISVSGGSTYYADSVKGRFTISRDNAKNTVYLQMNSLKPEDTAVYYCAAELSAPQPDYQQKVDYYYWGQGTQVTVSS
polyreactivity (PSR sort gate): low polyreactivity

QVQLVESGRGLVQAGVSLRLSCAASGRTFVLYTMGWYRQAPGKERELVAAITKSGGSTYYADSVKGRFTISRDNAKNTVYLQMNSLKPEDTAVYYCAAARRYYTYYREDYYYWGQGTLVTVSS
polyreactivity (PSR sort gate): high polyreactivity

QVQLVESGGGLVQAGGSLRLSCAASGFTFVRYAMGWYRKAPGKERELVAAISGSGDRTYYADSVKGRFTISRDNAKNTVYLQMNSLKPEDTAVYYCAKKSLGARHTGRYNYWGQGTQVTVSS
polyreactivity (PSR sort gate): high polyreactivity

QVQLVQSGGGLVQAGGSLRLSCAASGNIFKGYAMRWYRQAPVKERELVAAISKSGGSTYYADSVKGRFTMSRDNAKNTVYLQLNSLKPADTAVYYSNTYTYAGYNYWGQGTQVTVSS
polyreactivity (PSR sort gate): high polyreactivity

QVQLVESGGGLVQAGGSLRLSCAASGFIFRYYAMGWYRQAPGKERELVASIVWSGGNTYYADSVKGRFTISRDNAKNTVYLQMNSLKPEDTAVYYCNRRGMDWGQGTQVTVSS
polyreactivity (PSR sort gate): low polyreactivity

QVQLVESGGGLVQAGGSLRLSCAASGLIFYVYAMGWYRQAPGKERELVATISSSGGSTYYADSVKGRFTISRDNAKNTVYLQMNSLKPEDTAVYYCAARWSHYRTGWGDTSYHYYYWGQGTQVTVSS
polyreactivity (PSR sort gate): high polyreactivity

QVQLVESGGCLVQAGGSLRLSCAASGSIRSYAMGWYRQAPGKERELVAAITRSGGSTYYADSVKGRFTISRDNAKNTVYLPMKSLKPEDTAVYYCAARYTYSYPLFGSWGQGTQVTVSS
polyreactivity (PSR sort gate): high polyreactivity

QVQLVESGGGLVQAGGSLRLSCAASGRTFKLYAMGWYRQAPGKERELVAAISRSSGSTYYADSVKGRFTISRDNAKNTDYLQMNSLKPEDTAVYYCAARKNRAYGYWGQGTQVTVSS
polyreactivity (PSR sort gate): high polyreactivity

QVQLVESGGGLVQAGGSLRLSCAPSGLTYLYAMGWYRQAPGKETELVAAISSSGGSTYYADSVKGRFTISRDNAKNTVSLQMNSLNPEDTGVYYCAAYTRGWLGYDYWGQGTQVTVSS
polyreactivity (PSR sort gate): high polyreactivity

QVQLQESGGGLVQAGGSLRLSCAASGYIFVDYTMGWHRQAPGKERELVATINLGATSYYADSVKGRFTISRDNAKNTVYQQMNSLKPEDTAVYYCAVALQQVNYFPYWCQGTQVTVSS
polyreactivity (PSR sort gate): low polyreactivity

QVQLVESAGGLVQAGVSRRLSFAASGSIFGDYAMGWYRQAPGTERELVATITWIGGSTYYADSVKGRFTISRDNAKNTVYLQMNSLIPEDTAVYYCAATKYVDVKYYYWGQGTQVTLSS
polyreactivity (PSR sort gate): low polyreactivity

QVQLVESGLGLVQAGRSLRLSCASSGRIFNYYAMVWYRQAPGKERELVAGINWSGTRTYYADSVKGRFTISRDNAKNTVYLQMNSLKPEDTAVYYCNAGRTWRAFTGDEYWGQGTQVSVSS
polyreactivity (PSR sort gate): high polyreactivity

QVQQLESAGGLVQAGGSLRLSCAASGTITVLYKMGWFRQAPGKEREFVASINYGTSTYYADSVKGRFSVSPDSAKHTVYLQMNSLNPEDTAVYYCAAAYRWQDVYRYWGLGTQVTVSS
polyreactivity (PSR sort gate): low polyreactivity

QVQLVESGGGLVQAGRSLRLSCAASGYTFSRYTMGWYRQAPGKEWELVAAISSSGGSTYADSVKGRFTISRDNAKNTVYLQMTSLKPEDTGVYYCNRYYRRATKVGDWGQGTQVTVSS
polyreactivity (PSR sort gate): high polyreactivity

QVQLVESGGGLVQAGGSLRLSCAASGITFWDYAMGWYRQAPGTERELVAANSRSGGSTYYADSVKGRFTISRDNAKKTVYLQMNSLKPEDTAVYFCAAYTRRPIYDYWGQGTQVTVSS
polyreactivity (PSR sort gate): high polyreactivity

QVQLVESGGGLVQAGGSLRLSCAASGRTFYRYAMGWSRQAPGKERELVAGISGSGGRTYYADSVKGRFTISRDNAKNTVFLQMNSLKPEDTAVYYCNAYPHAYTGSTREGDYWGQGTQVTVSS
polyreactivity (PSR sort gate): high polyreactivity

QVQLVESGGGLVQAGGSLRLSCAASGSIFHFNAMGWYRQAPGKERELVATITSSGSSTYYADSVKGRFTISRDNAKNTVYLQMNSLKPEDTAVYYCAAGWFWQMDYWGQGTQVTVSS
polyreactivity (PSR sort gate): low polyreactivity

QVQLVESGGGLVQAGGSLRLSCAASGSTFDSYVMGLYRQAPGKERELFAAISSDDSTYYADSVKGRFTISRDNAKNTVYLQMNSLKPEDTAVYYCAATNFRDYYWSWKYYYWGQGTQVTVSS
polyreactivity (PSR sort gate): low polyreactivity

QVQLVESGGGLVQAGGSLRLSCAASGITFTPYALGWSRPAPGKERELVAAISASGGNTYYADSVKGRFTISRDNAKNTVYLQMNSLKPDDTAVYYCAAVVAFATGTYYYWGQGTQVTVSS
polyreactivity (PSR sort gate): high polyreactivity

QVQVVESGGGIVHAEGSLRLSCAPSGLTFPVYAMVWYRQAPRKERELVAAISKSGGNTYYADSVKGRFTISRDNAKNTVYLQMNSLKPEDTAVYYCAAGYLSGNYARYGYWGQGTQVTVSS
polyreactivity (PSR sort gate): high polyreactivity

QVQLVESGGGLVQAGGSLRLSCAASGLIFWGYAMGWYRQAPGKERELVAAISSSGGSTYYADSVKGRFTISRDNAKNTVYLQMNSLKPEDTAVYYCNADYTYYPGYDYWGQGTQVTVSS
polyreactivity (PSR sort gate): low polyreactivity

QVQLVESGGGLVQAGGSLRLSCAASGSIFVNNAMGWYRQAPGKERELVAAISSRSSRTFYADSVKWRFTISRDNAKNTVYLQMNCLKPEDTAVYSCAVKKRAPDGDYWGQGTQVTVSS
polyreactivity (PSR sort gate): high polyreactivity

QVQLVESGRGLVQAGGSLRLSCAASGITFSYYTMGWYRQAPGKERELVAAINWNGGSTYYADSVKGRFTISRDNAKNTVYLQMNSLKPEDTAVYYCAREKWPSQYDYWGQGTQVTVSS
polyreactivity (PSR sort gate): low polyreactivity

QVQLVESGGGLVQAGGSLRVSCAASGTIFRRYAMGWYRQAPGKERELVATISSCTTTNYADSVKGRFTISRDNAKNTVYLQMNSLKPEDTAVYYCAADDYYEFYWGQGTQVTVSS
polyreactivity (PSR sort gate): high polyreactivity

QVKLVESGGGLVQAGGRLSLSCAASGLTLSGNAMGWYRQAPGKDRELVAAITGRGGSTTYADSVKGRFTISRDNAKNTVYLQMNSVKPEDTAVYYCAATRYSWNNRVSRRHRYEYWGQGTQVTVSS
polyreactivity (PSR sort gate): high polyreactivity

QVQLVESGGGLVQAGGSLRLSCAASGITFWYYAMGWYRQAPGKERELVAVISRGGSTYYADSVKGRFTISRDNAKNTVYLQMNSLKPEDTAVYYCAARPRWYTYTRQEYDYWGQGTQVTVSS
polyreactivity (PSR sort gate): high polyreactivity

QVQLVESGGGLVQAGGSLRLSCAASGFIFTKNTMGWYRQAPGKEREWVAAISRGGSTYYADSVKGRFTISRDNAKNTVYLQMNSLKPEDTAVYYCAALYNSTKYGVYTNGPQAEYDYWGQGTQVTVSS
polyreactivity (PSR sort gate): high polyreactivity

QVHLVESGGGLVQAGGSLRLSCAASGIIFDEYAMGWYSQAPGKERELVAAINWSGGITYYADSVKGRFTISRDNAKNTVYLQMNSLKPEDTAVYYCNKDPLVFDYWGQGTQVTVSS
polyreactivity (PSR sort gate): low polyreactivity

QVQLLESGGGLVQPGGSLRLSCAASGSTFYDYAMGWYRTAPGKEREFVADIYSNGGSTYYAHSVKGRFTISRDNANYTVYLQMNSLKPEDTAVYYCASVLRPRQGRRYDYWGQGTQVTVSS
polyreactivity (PSR sort gate): low polyreactivity

QVQLVESGGGLVQARGSLRLSSSASGSIFKYYAMGRYRHAPGKESELGAAISYSGGTTYYADSVKGRFTISRDNAKNTVYLQMNSLKPEDTAVYDCNARYPNFVVRGYAPYDYWGQGSQVTVSS
polyreactivity (PSR sort gate): low polyreactivity

QVQLVESAGGLVQAGGSLRLSCGASGRIYSLYAMGWYRQAPGKERELVAAISWGAGSTYYADSVKGRFTISRDNAKNTVYLQMNSLKREDTAVYYCATGRRYYYPYSSYLKYGYWGQGTQVTVSS
polyreactivity (PSR sort gate): high polyreactivity

QVQLVESGGGLVQAGGSLRLSCAASGRIFYGYAMGWYRQAPGKERELVAAITRGGSTYYADSVKGRFTISRDNAKNTVYLQMNSLKPEDTAVYYCAAVIYSYRSYREYGYWGQGTQVTVSS
polyreactivity (PSR sort gate): high polyreactivity

QLQLVESGGGLVQAGGSLRLSCAASGRIFRKNAMGWYRQAPGKERELVAAITSSGNTYYADSVKGRFTISRDNAKNTVYLQMNSLKTEDTAVYYCAARLKWLNRYGYDYWGQGTQVTVSS
polyreactivity (PSR sort gate): low polyreactivity

QVQLVESGGGLVQAGGSLRLSCAASGRIFYNYAMGWYRQAPGKERELVASINFSGTRTYYADSVKGRFTISRDNAKNTVYLQMNSLKPEDTAVYYCAARQAHGYYYWGQGTQVTVSS
polyreactivity (PSR sort gate): high polyreactivity

QVQLVESGGGLVQAGGSLRLSCAASGSIFWRNTMGWYRQAPGKEREFVAAISSNGGGTYYADSVKGRFTISRDKAKNTVYLQTNSLKPEDTAVYYFAATAGGSYKLWYYYWGQGTQVTVSS
polyreactivity (PSR sort gate): high polyreactivity

QVQLVESRGGLVQAGGSLRLSCAASGSIFSFYAMGWYRQAPGKERELVATITSGGSTYYADSVKGRFSISRDNAKNTVYLQMNSLKPEDTAVYYCAARGNFGANPGRKHGFDYWGQGTQVTVSS
polyreactivity (PSR sort gate): high polyreactivity
